These are literature values, as cited in publication PMC6116012.

As usually defined, the Kd is the concentration at which binding is half-saturated.

For one data set, the target named is PAF15 (Homo sapiens) (UniProt Q15004).
The target of data set [1] is PAF15 extended PIP-box peptide PIP-box (Homo sapiens) (UniProt Q15004).
In another data set the target is FEN1 (Homo sapiens) (UniProt P39748).
Chain of UniProt P39748 (P39748 whole entry): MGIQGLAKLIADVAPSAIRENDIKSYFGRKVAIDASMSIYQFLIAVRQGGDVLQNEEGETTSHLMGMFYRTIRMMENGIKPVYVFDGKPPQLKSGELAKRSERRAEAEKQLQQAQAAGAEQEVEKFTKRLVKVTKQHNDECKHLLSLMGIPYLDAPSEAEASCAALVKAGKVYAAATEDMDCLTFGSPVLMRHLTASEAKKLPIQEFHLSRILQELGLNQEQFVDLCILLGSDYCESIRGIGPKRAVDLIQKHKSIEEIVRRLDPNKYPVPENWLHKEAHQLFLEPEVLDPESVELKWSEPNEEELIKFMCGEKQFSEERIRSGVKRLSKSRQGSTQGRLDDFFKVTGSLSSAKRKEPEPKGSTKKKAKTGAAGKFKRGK

Take PCNA (from UniProt P12004): the Kd with PAF15 (Homo sapiens) was 1100 nM; in data set [1], 5600 nM; with FEN1 (Homo sapiens) it was 60 nM.
